Laboratory results as given in patent publication US20210261648A1 (published 2021).
Residue numbers refer to the chain shown, from its start.

B1: IL6R-BP205/IL6R-L (antibody, human IgG1, kappa)
heavy: QVQLQESGPGLVKPSETLSLTCAVSGHSISHDHAWSWVRQPPGEGLEWIGFISYSGITNYNPSLQGRVTISRDNSKNTLYLQMNSLRAEDTAVYYCARSLARTTAMDYWGEGTLVTVSSASTKGPSVFPLAPSSKSTSGGTAALGCLVKDYFPEPVTVSWNSGALTSGVHTFPAVLQSSGLYSLSSVVTVPSSSLGTQTYICNVNHKPSNTKVDKKVEPKSCDKTHTCPPCPAPDLLGGDSVFLFPPKPKDTLMISRTPEVTCVVVDVSHEDGEVKFNWYVDGVEVHNAKTKPREEQDNSTYRVVSVLTVLHQDWLNGKEYKCKVSNKALPRPIEKTISKAKGQPREPQVYTLPPSRDELTKNQVSLTCLVKGFYPSDIAVEWESNGQPENNYKTTPPVLDSDGSFFLYSKLTVDKSRWQQGNVFSCSVMHEALHNHYTQESLSLSP
light: not shown
B2: IL6R-BP534/IL6R-L (antibody, human IgG1, kappa)
heavy: B1 heavy with G239D, V266I, H270E, P398L
light: not shown
notes: Alterations in EU numbering, introduced into IL6R-B3
B3: IL6R-BP435/IL6R-L (antibody, human IgG1, kappa)
heavy: B1 heavy with G239D, H270D, K328A, I334T
light: not shown
notes: as for B2
B4: IL6R-BP479/IL6R-L (antibody, human IgG1, kappa)
heavy: B1 heavy with G239D, V266I, V268L, S269A, H270E, D298Y, R332A
light: not shown
notes: as for B2
B5: IL6R-BP553/IL6R-L (antibody, human IgG1, kappa)
heavy: B1 heavy with G239D, V266I, S269A, H270E, E274D, D298Y
light: not shown
notes: as for B2
B6: IL6R-BP555/IL6R-L (antibody, human IgG1, kappa)
heavy: B1 heavy with D235E, G239D, V266I, S269A, H270E, E274D
light: not shown
notes: as for B2
B7: IL6R-BP552/IL6R-L (antibody, human IgG1, kappa)
heavy: B1 heavy with G239D, V266I, S269A, H270E, E274D
light: not shown
notes: as for B2
B8: IL6R-BP262/IL6R-L (antibody, human IgG1, kappa)
heavy: B1 heavy with D235E, G239D, H270E, D298Y, R332A
light: not shown
notes: as for B2
B9: IL6R-BP506/IL6R-L (antibody, human IgG1, kappa)
heavy: B1 heavy with G239D, V266I, S269A, H270E, E274P
light: not shown
notes: as for B2
B10: IL6R-BP481/IL6R-L (antibody, human IgG1, kappa)
heavy: B1 heavy with G239D, V266I, S269A, H270E, D298Y, R332A
light: not shown
notes: as for B2
B11: IL6R-BP492/IL6R-L (antibody, human IgG1, kappa)
heavy: B1 heavy with D235E, V266I, S269A, H270E, D298Y, R332A
light: not shown
notes: as for B2
B12: IL6R-BP490/IL6R-L (antibody, human IgG1, kappa)
heavy: B1 heavy with D235E, G239D, V266I, S269A, H270E, D298Y
light: not shown
notes: as for B2
B13: IL6R-BP484/IL6R-L (antibody, human IgG1, kappa)
heavy: B1 heavy with G239D, S269A, H270E, E271D, D298Y, R332A
light: not shown
notes: as for B2
B14: IL6R-BP445/IL6R-L (antibody, human IgG1, kappa)
heavy: B1 heavy with G239D, V266I, S269A, H270E, D298Y
light: not shown
notes: as for B2
B15: IL6R-BP557/IL6R-L (antibody, human IgG1, kappa)
heavy: B1 heavy with D235E, G239D, S269G, H270D
light: not shown
notes: as for B2
B16: IL6R-BP507/IL6R-L (antibody, human IgG1, kappa)
heavy: B1 heavy with G239D, V266I, S269A, H270E, E274P, D298Y
light: not shown
notes: as for B2
B17: IL6R-BP493/IL6R-L (antibody, human IgG1, kappa)
heavy: B1 heavy with D235E, V266I, S269A, H270E, R332A
light: not shown
notes: as for B2
B18: IL6R-BP480/IL6R-L (antibody, human IgG1, kappa)
heavy: B1 heavy with G239D, V268L, H270E, E271D, D298Y, R332A
light: not shown
notes: as for B2
B19: IL6R-BP268/IL6R-L (antibody, human IgG1, kappa)
heavy: B1 heavy with G239D, H270E, R332A
light: not shown
notes: as for B2
B20: IL6R-BP531/IL6R-L (antibody, human IgG1, kappa)
heavy: B1 heavy with G239D, V266I, S269G, H270E, P398M
light: not shown
notes: as for B2
B21: IL6R-BP495/IL6R-L (antibody, human IgG1, kappa)
heavy: B1 heavy with D235E, G239D, S269G, H270E
light: not shown
notes: as for B2
B22: IL6R-BP535/IL6R-L (antibody, human IgG1, kappa)
heavy: B1 heavy with G239D, V266I, S269G, H270E, A329G, P398M
light: not shown
notes: as for B2
B23: IL6R-BP426/IL6R-L (antibody, human IgG1, kappa)
heavy: B1 heavy with G239D, S269A, H270E, E271D, D298Y
light: not shown
notes: as for B2
B24: IL6R-BP269/IL6R-L (antibody, human IgG1, kappa)
heavy: B1 heavy with D235E, G239D, H270E, R332A
light: not shown
notes: as for B2
B25: IL6R-BP532/IL6R-L (antibody, human IgG1, kappa)
heavy: B1 heavy with G239D, V266I, H270E, P398M
light: not shown
notes: as for B2
B26: IL6R-BP483/IL6R-L (antibody, human IgG1, kappa)
heavy: B1 heavy with G239D, V268L, S269A, H270E, D298Y, R332A
light: not shown
notes: as for B2
B27: IL6R-BP537/IL6R-L (antibody, human IgG1, kappa)
heavy: B1 heavy with D235E, G239D, V266I, S269G, H270E, D298Y
light: not shown
notes: as for B2
B28: IL6R-BP494/IL6R-L (antibody, human IgG1, kappa)
heavy: B1 heavy with D235E, G239D, S269A, H270E
light: not shown
notes: as for B2

Legend:
[1] = molecular target: T1, FcγRIa extracellular domain with C-terminal His tag (human, UniProt P12314 16-292); test: SPR, captured antibody, FcgR analyte
T1 construct: also called FcgRIa
Description: (§1) Relative binding activities were calculated for the results of analyzing interactions with the respective FcγRs according to the following method.

[2] = molecular target: T2, FcγRIIb extracellular domain with C-terminal His tag (human, UniProt P31994 43-217); test: SPR, captured antibody, FcgR analyte
T2 construct: extracellular domain; also called FcgRIIb
T2 sequence (looked up): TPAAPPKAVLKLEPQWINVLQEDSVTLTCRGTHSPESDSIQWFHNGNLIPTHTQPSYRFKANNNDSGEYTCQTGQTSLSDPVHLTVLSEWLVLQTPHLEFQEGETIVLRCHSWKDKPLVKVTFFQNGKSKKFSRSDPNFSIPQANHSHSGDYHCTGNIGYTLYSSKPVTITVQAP
Description: as §1

FcγRIa = molecular target: T3, FcγRIa (human, UniProt P12314 16-292); test: SPR (Biacore), captured antibody, soluble FcγR
T3 construct: Whole entry named; also called FcgRIa; CD64A

FcγRIIb [3] = molecular target: T4, FcγRIIb (human, UniProt P31994 43-217); test: SPR (Biacore), captured antibody, soluble FcγR
T4 construct: extracellular domain; also called FcgRIIb; CD32B
T4 sequence (looked up): T2 sequence (looked up)

FcγRIIa type R [4] = molecular target: T5, FcγRIIa type R (human, UniProt P12318 34-217); test: SPR (Biacore), captured antibody, soluble FcγR
T5 chain: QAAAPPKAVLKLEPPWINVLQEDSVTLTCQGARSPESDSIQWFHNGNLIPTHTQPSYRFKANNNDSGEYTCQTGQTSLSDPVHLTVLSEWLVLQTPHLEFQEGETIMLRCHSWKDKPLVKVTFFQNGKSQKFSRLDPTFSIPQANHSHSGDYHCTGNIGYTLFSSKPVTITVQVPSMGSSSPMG

FcγRIIb [5] = molecular target: T4, FcγRIIb; test: SPR (Biacore); parent = IL6R-B3/IL6R-L
FcγRIIa type R [6] = molecular target: T5, FcγRIIa type R; test: SPR (Biacore); parent = IL6R-B3/IL6R-L

T3 sequence (P12314 16-292): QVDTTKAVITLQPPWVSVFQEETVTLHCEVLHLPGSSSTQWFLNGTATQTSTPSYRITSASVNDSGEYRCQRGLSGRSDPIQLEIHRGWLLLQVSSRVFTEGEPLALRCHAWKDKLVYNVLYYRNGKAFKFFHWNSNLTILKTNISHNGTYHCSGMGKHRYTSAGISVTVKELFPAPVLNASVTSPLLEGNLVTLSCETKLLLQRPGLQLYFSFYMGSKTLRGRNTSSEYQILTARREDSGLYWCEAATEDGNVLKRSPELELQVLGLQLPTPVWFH
T1 sequence (P12314 16-292): as above

| Binder | relative binding activity [1] | relative binding activity [2] | Kd (FcγRIa) | Kd (FcγRIIb [3]) | Kd (FcγRIIa type R [4]) | KD(IIb) of the parent polypeptide/KD(IIb) of the altered polypeptide (FcγRIIb [5]) | KD(IIaR) of the parent polypeptide/KD(IIaR) of the altered polypeptide (FcγRIIa type R [6]) |
| --- | --- | --- | --- | --- | --- | --- | --- |
| B1 | 97 relative (IL6R-BF648/IL6R-L = 100) | 167 relative (IL6R-BF648/IL6R-L = 100) |  |  |  |  |  |
| B2 |  |  | 9.3 nM | 3 nM | 91 nM |  |  |
| B3 |  |  | 1 nM |  |  |  |  |
| B4 |  |  | 5.3 nM | 56 nM | 900 nM | 55.5 fold | 1.2 fold |
| B5 |  |  | 3.4 nM | 3.1 nM | 86 nM |  |  |
| B6 |  |  | 9.4 nM | 4.1 nM | 160 nM |  |  |
| B7 |  |  | 3.2 nM | 2.6 nM | 97 nM |  |  |
| B8 |  |  | 10 nM | 120 nM | 2000 nM | 25.8 fold | 0.5 fold |
| B9 |  |  | 3.1 nM | 3.4 nM | 120 nM |  |  |
| B10 |  |  | 1 nM | 19 nM | 400 nM | 160 fold | 2.8 fold |
| B11 |  |  | 0.79 nM | 24 nM | 920 nM | 131 fold | 1.2 fold |
| B12 |  |  | 4.5 nM | 2.4 nM | 110 nM |  |  |
| B13 |  |  | 0.82 nM | 46 nM | 780 nM | 67.8 fold | 1.4 fold |
| B14 |  |  | 2 nM | 2.6 nM | 80 nM | 1200 fold | 13.8 fold |
| B15 |  |  |  | 20 nM | 850 nM |  |  |
| B16 |  |  | 2.6 nM | 2.9 nM | 100 nM |  |  |
| B17 |  |  | 0.82 nM | 21 nM | 1100 nM | 147 fold | 1 fold |
| B18 |  |  |  | 200 nM | 6300 nM |  |  |
| B19 |  |  | 4.5 nM | 92 nM | 1800 nM | 33.7 fold | 0.6 fold |
| B20 |  |  | 9.4 nM | 3.8 nM | 120 nM |  |  |
| B21 |  |  | 8.3 nM | 9.7 nM | 490 nM | 321 fold | 2.2 fold |
| B22 |  |  | 11 nM | 4 nM | 92 nM |  |  |
| B23 |  |  | 1 nM |  |  |  |  |
| B24 |  |  | 14 nM | 110 nM | 2200 nM | 27.4 fold | 0.5 fold |
| B25 |  |  | 12 nM | 3.2 nM | 94 nM |  |  |
| B26 |  |  | 1.3 nM | 78 nM | 1300 nM | 39.7 fold | 0.8 fold |
| B27 |  |  | 29 nM | 6.9 nM | 270 nM |  |  |
| B28 |  |  | 3.9 nM | 6.6 nM | 250 nM | 471 fold | 4.3 fold |
